Data published in US20200055896.

Tests used:
[1] = molecular target: T1, GP probe: fluorescence-quenched peptide of the region flanking the C-terminal human FGF21 cleavage site (VGPSQG)
T1 chain: VGPSQGK

[2] = molecular target: ANPFAP, internally-quenched FRET peptide substrate for FAP (Li et al. 2012)
[3] = molecular target: EP probe: fluorescence-quenched peptide of the homologous region of murine FGF21

B1: Human prolyl oligopeptidase (PREP, 4308-SE) (protein)
chain: MLSLQYPDVYRDETAVQDYHGHKICDPYAWLEDPDSEQTKAFVEAQNKITVPFLEQCPIRGLYKERMTELYDYPKYSCHFKKGKRYFYFYNTGLQNQRVLYVQDSLEGEARVFLDPNILSDDGTVALRGYAFSEDGEYFAYGLSASGSDWVTIKFMKVDGAKELPDVLERVKFSCMAWTHDGKGMFYNSYPQQDGKSDGTETSTNLHQKLYYHVLGTDQSEDILCAEFPDEPKWMGGAELSDDGRYVLLSIREGCDPVNRLWYCDLQQESSGIAGILKWVKLIDNFEGEYDYVTNEGTVFTFKTNRQSPNYRVINIDFRDPEESKWKVLVPEHEKDVLEWIACVRSNFLVLCYLHDVKNILQLHDLTTGALLKTFPLDVGSIVGYSGQKKDTEIFYQFTSFLSPGIIYHCDLTKEELEPRVFREVTVKGIDASDYQTVQIFYPSKDGTKIPMFIVHKKGIKLDGSHPAFLYGYGGFNISITPNYSVSRLIFVRHMGGILAVANIRGGGEYGETWHKGGILANKQNCFDDFQCAAEYLIKEGYTSPKRLTINGGSNGGLLVAACANQRPDLFGCVIAQVGVMDMLKFHKYTIGHAWTTDYGCSDSKQHFEWLVKYSPLHNVKLPEADDIQYPSMLLLTADHDDRVVPLHSLKFIATLQYIVGRSRKQSNPLLIHVDTKAGHGAGKPTAKVIEEVSDMFAFIARCLNVDWIP
- cleavage of fluorescence-quenched peptide (FRET-quench assay), 1 nM enzyme [1]: both enzymes readily cleaved the GP peptide
- cleavage of quenched-FRET peptide, 10 nM enzyme [2]: both FAP and PREP efficiently cleave ANPFAP in vitro

B2: FAP in mouse plasma (protein)
chain: IVLRPSRVYKPEGNTKRALTLKDILNGTFSYKTYFPNWISEQEYLHQSEDDNIVFYNIETRESYIILSNSTMKSVNATDYGLSPDRQFVYLESDYSKLWRYSYTATYYIYDLQNGEFVRGYELPRPIQYLCWSPVGSKLAYVYQNNIYLKQRPGDPPFQITYTGRENRIFNGIPDWVYEEEMLATKYALWWSPDGKFLAYVEFNDSDIPIIAYSYYGDGQYPRTINIPYPKAGAKNPVVRVFIVDTTYPHHVGPMEVPVPEMIASSDYYFSWLTWVSSERVCLQWLKRVQNVSVLSICDFREDWHAWECPKNQEHVEESRTGWAGGFFVSTPAFSQDATSYYKIFSDKDGYKHIHYIKDTVENAIQITSGKWEAIYIFRVTQDSLFYSSNEFEGYPGRRNIYRISIGNSPPSKKCVTCHLRKERCQYYTASFSYKAKYYALVCYGPGLPISTLHDGRTDQEIQVLEENKELENSLRNIQLPKVEIKKLKDGGLTFWYKMILPPQFDRSKKYPLLIQVYGGPCSQSVKSVFAVNWITYLASKEGIVIALVDGRGTAFQGDKFLHAVYRKLGVYEVEDQLTAVRKFIEMGFIDEERIAIWGWSYGGYVSSLALASGTGLFKCGIAVAPVSSWEYYASIYSERFMGLPTKDDNLEHYKNSTVMARAEYFRNVDYLLIHGTADDNVHFQNSAQIAKALVNAQVDFQAMWYSDQNHGISSGRSQNHLYTHMTHFLKQCFSLSD
- cleavage of the GP probe in mouse plasma, with cpd60 and KYP-2047 [1]: FAP is the major enzyme responsible for the cleavage of the GP probe in plasma

B3: N-terminal octa-His-tagged mouse FAP protein containing the extracellular domain (residues L26-D761) (protein)
chain: LRPSRVYKPEGNTKRALTLKDILNGTFSYKTYFPNWISEQEYLHQSEDDNIVFYNIETRESYIILSNSTMKSVNATDYGLSPDRQFVYLESDYSKLWRYSYTATYYIYDLQNGEFVRGYELPRPIQYLCWSPVGSKLAYVYQNNIYLKQRPGDPPFQITYTGRENRIFNGIPDWVYEEEMLATKYALWWSPDGKFLAYVEFNDSDIPIIAYSYYGDGQYPRTINIPYPKAGAKNPVVRVFIVDTTYPHHVGPMEVPVPEMIASSDYYFSWLTWVSSERVCLQWLKRVQNVSVLSICDFREDWHAWECPKNQEHVEESRTGWAGGFFVSTPAFSQDATSYYKIFSDKDGYKHIHYIKDTVENAIQITSGKWEAIYIFRVTQDSLFYSSNEFEGYPGRRNIYRISIGNSPPSKKCVTCHLRKERCQYYTASFSYKAKYYALVCYGPGLPISTLHDGRTDQEIQVLEENKELENSLRNIQLPKVEIKKLKDGGLTFWYKMILPPQFDRSKKYPLLIQVYGGPCSQSVKSVFAVNWITYLASKEGIVIALVDGRGTAFQGDKFLHAVYRKLGVYEVEDQLTAVRKFIEMGFIDEERIAIWGWSYGGYVSSLALASGTGLFKCGIAVAPVSSWEYYASIYSERFMGLPTKDDNLEHYKNSTVMARAEYFRNVDYLLIHGTADDNVHFQNSAQIAKALVNAQVDFQAMWYSDQNHGISSGRSQNHLYTHMTHFLKQCFSLSD
- cleavage of fluorescence-quenched peptide (FRET-quench assay) [3]: purified recombinant mouse FAP protein cleaved the GP but not GG or EP probes
- catalytic efficiency (Michaelis-Menten kinetics) [1]: mouse FAP exhibited a lower catalytic efficiency than human FAP, mainly due to a reduced kcat
- cleavage of fluorescence-quenched peptide (FRET-quench assay) [1]: purified recombinant mouse FAP protein cleaved the GP but not GG or EP probes
